Measurements from patent US20200283529A1 (UNIVERSITY OF BRITISH COLUMBIA, published 2020).

Legend:
[1] = molecular target: T1, HLA-A*23:01 on FlowPRA Single Antigen beads (human, UniProt P13749 25-305 (Pan troglodytes entry), limits assumed); assay: single antigen FlowPRA bead assay, flow cytometry
T1 construct: Bought HLA class I antigen on One Lambda beads. b2m and peptide are not described
T1 MHC heavy: not shown

[2] = molecular target: T2, HLA-A*24:02 on FlowPRA Single Antigen beads (human, UniProt P04439-2 25-302 at identity 0.92)); assay: single antigen FlowPRA bead assay, flow cytometry
T2 construct: Bought HLA class I antigen on One Lambda beads. b2m and peptide are not described
T2 MHC heavy: not shown

binding result [1]: no binding | binding result [2]: no binding
B1: BB7.2 antibody (antibody, IgG2b, V domains shown)
VH: QVQLQQSGPELVKPGASVKMSCKASGYTFTSYHIQWVKQRPGQGLEWIGWIYPGDGSTQYNEKFKGKTTLTADKSSSTAYMLLSSLTSEDSAIYFCAREGTYYAMDYWGQGTSVTVSS
VL: DVLMTQTPLSLPVSLGDQVSISCRSSQSIVHSNGNTYLEWYLQKPGQSPKLLIYKVSNRFSGVPDRFSGSGSGTDFTLKISRVEAEDLGVYYCFQGSHVPRTFGGGTKLEIK
notes: also called mouse monoclonal antibody (BB7.2)
